Reference: PMC10520678

How the values were obtained:
[1] = target: TRIM21 (UniProt P19474); test: anti-Flag co-IP, TRIM21 blot; details: reference: wild type, EGF-treated; sites Y288
[2] = target: TRIM21 (UniProt P19474); test: co-IP, blot; details: reference: wild type CD47, c-Src CA expressed; sites Y288

| binding against the reference [1] | binding against the reference [2] | Substance |
| --- | --- | --- |
| stronger |  | CD47 (from UniProt Q08722) Y288F, EGF-treated |
|  | stronger | CD47 (from UniProt Q08722) Y288F, c-Src CA expressed |
